The source of these data is the nanobody polyreactivity screen of Harvey et al. (2022).

This series is described as follows: yeast display, Sf9 membrane polyspecificity reagent, FACS + sequencing; frameworks hold sequencing errors. The procedure, abridged:
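Sorting gates, low and high (top ~1%), were placed on anti-HA fluorescence to track expression and on streptavidin fluorescence to track reagent binding. A clone's polyreactivity label is taken from the gate it came out of. The reagent was 10% biotinylated, detergent-solubilized Sf9 membrane, applied for 1 hour at 4 °C to galactose-induced yeast display cells.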
On to “QVQLVESGGGLVQAGGSLRLSCAASAFIYSFNAMGWYSQAPGKERELVAAISRSGGSTRYADSVKGRFTISRDTAKNTVYLQMNSLKPEYTAVYYCATDASPVRKRYDYWGQGTQVTVSS”, for which the “polyreactivity (PSR sort gate)” value is given as “high polyreactivity”.
The entry for “QVQLVESGGGLVQAGGSLRLSCAASAFIYSSYAMGWYRQAPGKEMELVAAISYSGGSTYYADSVKGRFTISRDTAKNTVYLQMNRLKPEDTAVYYCAAELQIKIGFYTGEYEYYYWGQGTQVTVSS” is “high polyreactivity”; for “QVQLVESGGGLVQAGGSLRLSCAASAFTFDPYARGWYRHAPGKERELDAANSWSGGSTYYADSVKGRFTISRDHAKNSVYLQMNSLKPEDTAVYYCAAEWYNSAYYEYDYWGQGTQVTVSS” it is “high polyreactivity”; for “QVQLVESGGGLVQAGGSLRLSCAASAFTFPGNAMGWYRHATGKERQLVAAISGTGGSTYYADSVKGRFTISRDNAKNTVYLQMNSLKPEDTAVYYCAARLGGRRRFGYWGQGTQVTVSS” it is “high polyreactivity”.
As for “QVQLVESGGGLVQAGGSLRLSCAASAIIFYTYAMGWYRQAPGKERELVAAISSGGRTTYADSVKGRFTISRDNAKTTVYFQMNSLKPEDTAVYYCAARLFRSRHAASPFIRSIYGYWGQGTQVTVSS”, the “polyreactivity (PSR sort gate)” value is given as “high polyreactivity”.
Regarding “QVQLVESGGGLVQAGGSLRLSCAASARIFSPYAMGWYRQAPGKERELVAAITSASSTYYADSVKGRFTISRDNAKNTLYLQMNSLKPEDTAVYYCAASYWRYGSAFDYWGQGTQVTVSS”, the “polyreactivity (PSR sort gate)” value is “high polyreactivity”.
The entry for “QVQLVESGGGLVQAGGSLRLSCAASASIFADNTMGWYRQAPGKERELVAAITSSGRTYYADSVKGRFTISLDNAKNTVYLQLNSLKPEDTAVYYCAAVIYFHDYSPYYYWGQGTQVTVSS” is “high polyreactivity”; for “QVQLVESGGGLVQAGGSLRLSCAASASIFYRYAMGWYRQAPGKERELVAAITRSGARTYYADSVKGRFTISRDNAKNTVYLQMNSLKPEDNAVYYCAADDPGYYQVEYWGQGTQVTVSS” it is “high polyreactivity”; for “QVQLVESGGGLVQAGGSLRLSCAASASIFYYYAMGWYRQEPGKERELVAALSDSGSTNYADSVKGRFTISRDNAKNTVYLQLNSLKPEDTAVYYCAAGFGSRRYRGVYYKMYYRGQGTQVTVSS” it is “high polyreactivity”.
In the case of “QVQLVESGGGLVQAGGSLRLSCAASASILGSNAMGWYSQAPGKEREFVAAITWTGGSTYYADSVKGRFTISRDNAKNTVYLQMNSLKPEDSAVYYWAKDVKYVKMDDWGQGTQVTVSS”, the “polyreactivity (PSR sort gate)” value is recorded as “low polyreactivity”.
Regarding “QVQLVESGGGLVQAGGSLRLSCAASASNFGYNAMGRYRQAPGKERELVAVITDSGGSTYYADSVKGRFTISRDNAKNTVYLQMNSLKPEDTAVYYCAKVYGLVVRGHVILSGFDYWGQGTQVTVSS”, the “polyreactivity (PSR sort gate)” value is recorded as “low polyreactivity”.
Turning to “QVQLVESGGGLVQAGGSLRLSCAASASNSNGMTWYGIDRRLGRKELVAGIRSAGSTNYADSVKGRFTISRDNAKNTFYLQMNSLKPEDTAGYYCAKDYRWVWRKYGYWGQGTQVTVSS”, the “polyreactivity (PSR sort gate)” value is reported as “low polyreactivity”.
Take “QVQLVESGGGLVQAGGSLRLSCAASASTFYGYAMGRFRQAPGKERELVAAISSGGSTYYADSVKGRFTISRDNAKNTVYVQMNSLKPEVTAVYYCAAYSYPKKYGYWGQGTQVTVSL”: the “polyreactivity (PSR sort gate)” value is recorded as “high polyreactivity”.
For “QVQLVESGGGLVQAGGSLRLSCAASASTFYSYTMGWSRQAPGKERELVAAISRSGGRTYYADSVKGRFTISRDNAKNTVYLQMNSLKPEDTAVYYCAARWLGVDDYEYWGQGTQVTVSS”, the “polyreactivity (PSR sort gate)” value is “high polyreactivity”.
With “QVQLVESGGGLVQAGGSLRLSCAASASTLRRYAMGLYRQAPGQERELVAAISGTGSRTYYADSVKGRFTISRDTAKITVYLQMNSLKPEDSAVYYCNASPYRLTENDYWGQGTQVTVSS”, the “polyreactivity (PSR sort gate)” value is “high polyreactivity”.
As to “QVQLVESGGGLVQAGGSLRLSCAASAYTFYAMGWYRQAPGKERELVAAITYRGARTYYADSVKRRFTISRDNEKNTVYLQMNSLKPEYTAVYYCNADYWGQGTQVTVSS”, the “polyreactivity (PSR sort gate)” value was “low polyreactivity”.
Take “QVQLVESGGGLVQAGGSLRLSCAASCRIFSYYVMGWYRQAPGKERELVAAISYRGGGTYYADSVKGRFTISRDNAKNNFYLQMNSLKPEDTAVYYCNADTYSNTYRAYDYWGQGTQVTVSS”: the “polyreactivity (PSR sort gate)” value is on record as “low polyreactivity”.
Turning to “QVQLVESGGGLVQAGGSLRLSCAASFYVYAMGWYRQAPGKERELVAAITYSGGGTYYADSVKGRFTISRDNAKNTVYLQMNSLKPEDTAVYYCAADDYFYDYDYWGQGTQVTVSS”, the “polyreactivity (PSR sort gate)” value is “low polyreactivity”.
Under “QVQLVESGGGLVQAGGSLRLSCAASGAIFPSYVMGWYRPAPGKERELVAAITKSTGTTYYADSVKGRFTISRDNAKNTVYLQMNSLKPEDTAVYYCAASGSWSTNTAIYKFYYWGQGTQVTVSS” stands “low polyreactivity”; under “QVQLVESGGGLVQAGGSLRLSCAASGAIFSWNAMGWYRQAPGKERELVATITWNGGRTYYADSVKGRFTISRDNAKKTVYLQMNSLKPEATAVYYCAARNTQPASYGYGYWGQGTQVTVSS”, “high polyreactivity”; under “QVQLVESGGGLVQAGGSLRLSCAASGAILYGNAMGWYRQAPGKERELVAAISYSGGRTYYADSVKGRFTISRDNAKYTVYLQMNSLKPEDTAVYYCASLHSGRVQNFDYWGQGTQVTVSS”, “high polyreactivity”.
As for “QVQLVESGGGLVQAGGSLRLSCAASGATFPVYAMGWYRQAPGKEWELVAAISRSGASTYYADSVKGRFTISRDNAKNTVYLQMNSLKPEDTAVYYCARGYQGRLKYEYWGQGTQVNVSS”, the “polyreactivity (PSR sort gate)” value was “low polyreactivity”.
Regarding “QVQLVESGGGLVQAGGSLRLSCAASGATFWYNAMRWYREAPGKERELVAAITWTGDGTYYADSVKGRFTISRDNAKNTVYLQMNSLKPEDTAVYYCAAAYFQWSTSIVGLDAWYDYWGQGSQVTVSS”, the “polyreactivity (PSR sort gate)” value is recorded as “low polyreactivity”.
As for “QVQLVESGGGLVQAGGSLRLSCAASGCIFWKDAMGWYRQAPGKERELVAAITSGGGTYYADSVKGLFTISRDNAKNTVYLQMNSLKPEDTAVYYCAARSLSVARRRPYYYWGQGTQVTVSS”, the “polyreactivity (PSR sort gate)” value is recorded as “high polyreactivity”.
Turning to “QVQLVESGGGLVQAGGSLRLSCAASGFDGYAMGWYRQAPGKERELVAASSWSGSRTYYADSVKGRFTISRDNAKNTVYLQMNSLKPEDTAVYYCNAVLRYSIYPSYSFSYVGYYYWGHGTQVTVSS”, the “polyreactivity (PSR sort gate)” value is recorded as “high polyreactivity”.
As for “QVQLVESGGGLVQAGGSLRLSCAASGFICGLNAMGLYRQAPGKERELVAAIRSASSTNYADSVKGRFTISRDNAKNTVYLQMNSLKPEDTAVYYCAAEYVTYQQGFWGYDYWGQGTQVTVSS”, the “polyreactivity (PSR sort gate)” value is given as “low polyreactivity”.
Take “QVQLVESGGGLVQAGGSLRLSCAASGFIFADNAMGWYRQAPGKERELVAGITSGGITNYADSVKGRFTISRDNAKNTVYLQMNSLKQVDTAVYYCAVYYRRWFSRYDYWGQGTQVTVSS”: the “polyreactivity (PSR sort gate)” value is listed as “low polyreactivity”.
In the case of “QVQLVESGGGLVQAGGSLRLSCAASGFIFADNPMGWYRQAPGKERELVAGITSGGITNYADSVKGRFTISRDNAKNTVYLQMNSLKPEDTAVYYCAVYYRRWFSRYDYWGQGTQVTVSS”, the “polyreactivity (PSR sort gate)” value is reported as “low polyreactivity”.
In the case of “QVQLVESGGGLVQAGGSLRLSCAASGFIFADYAMGWYRPAPGKERELVAAISSGGRTKYADSVKGRFTISRDNAKNTVYLQMNSLIPDDTAVYYCAKALRRVPRIQAYPVPQGDYWGHGTQVTVSS”, the “polyreactivity (PSR sort gate)” value is “high polyreactivity”.
With “QVQLVESGGGLVQAGGSLRLSCAASGFIFADYAMGWYRQAPGKARELVAAINRGASTYYADSVKGRFSISRDNAKNTVYFQMNSLKPEDTAVYYCAAAGYSRGGRGGYWGHGTQVTVSS”, the “polyreactivity (PSR sort gate)” value is “high polyreactivity”.
As to “QVQLVESGGGLVQAGGSLRLSCAASGFIFADYTMGWSRQAPGQERELVAVITSGGSTHYADSVKGRFTISRDNAKNTVYLQMNSLKPEDTAVYYCAARSYRPTRGDYWGQGTKVTVSS”, the “polyreactivity (PSR sort gate)” value is “high polyreactivity”.
“QVQLVESGGGLVQAGGSLRLSCAASGFIFAEYAMGWYRQAPGKEREFVASITYSGGRTYYADSVKGRFTISRDNAKNTVYLQMNSLKPEDTAVYYCATARYRYHYYSWGQGTQVTVSS”: the “polyreactivity (PSR sort gate)” value is “high polyreactivity”.
On to “QVQLVESGGGLVQAGGSLRLSCAASGFIFAFNAMGWYRQAPGKEREFVASITGSSDSTYYADSVKGRFTISRDNAKNTVYLQMNSLKPEDTAVYYCAADPASSYGKYSYYYWGQGTQVTVSS”, for which the “polyreactivity (PSR sort gate)” value is listed as “high polyreactivity”.
On to “QVQLVESGGGLVQAGGSLRLSCAASGFIFAGYAMGWYRQAPGKERELVAAINRNGRSTYYADSVKGRFTISRDNAKNTVYLQMNSLKPEDTAVYYCNARSFARIGAGKGDYWGQGTQVTVSS”, for which the “polyreactivity (PSR sort gate)” value was “high polyreactivity”.
In the case of “QVQLVESGGGLVQAGGSLRLSCAASGFIFAKYAMGWYRQAPGKERELVAAITSGGSTNYADSVKGRFTISRDNAKNTVYLQMNSLKPEYTAVYYCNRGFDWWYRYRHYDYWGQGTQVTVSS”, the “polyreactivity (PSR sort gate)” value is listed as “low polyreactivity”.
Take “QVQLVESGGGLVQAGGSLRLSCAASGFIFALYTMGWYRQAPGKERELVARIRGGGRTNYADSVKGRFTISRDNAKNTVYLQMNSLKPEDTAVYYCNARKTVGMDYWGQGTQVTVSS”: the “polyreactivity (PSR sort gate)” value is reported as “low polyreactivity”.
For the sequence “QVQLVESGGGLVQAGGSLRLSCAASGFIFAQNAMGWYRQAPGKEREFVAAISSRGSRTYYADSVKGRFTISRDNAKNTVYLQMNSLKPEDTAVYYCAASRRTRSMNYWGQGTQVTVSS”, the “polyreactivity (PSR sort gate)” value was “high polyreactivity”.
“QVQLVESGGGLVQAGGSLRLSCAASGFIFARNAMGWYRQAPGKERELVAVISTRGRTYYADSVKGRFTISRDNAKNTVYLQMNSLKPEDTAVYYCNADKVIGYDYWGQGTQVTVSS”: the “polyreactivity (PSR sort gate)” value is “high polyreactivity”.
In the case of “QVQLVESGGGLVQAGGSLRLSCAASGFIFARYAMGWYRQAPGKERELVAAISSSGSSSYYADSVKGRFTISRDNAKNTVYLQMNSLKPEDTAVYYCAAKDSKYRNSPLYNYWGQGTQVTVSS”, the “polyreactivity (PSR sort gate)” value is “high polyreactivity”.
On to “QVQLVESGGGLVQAGGSLRLSCAASGFIFARYAMGWYRQAPGKERELVASITRRGGSTYYADSVKGRFTISRDYEKITVYLQMNSLKPEDTAVYYCARPNLLSGDYWGQGTQVTVSS”, for which the “polyreactivity (PSR sort gate)” value is given as “high polyreactivity”.
In the case of “QVQLVESGGGLVQAGGSLRLSCAASGFIFARYAMGWYRQAPGKERELVATISYTGGRRYYADSVKGRFTISRDHANNTVYLQINSLKPEDTAVYYVNAVYSYDRQRHEYWGQGTQVTVSS”, the “polyreactivity (PSR sort gate)” value is on record as “high polyreactivity”.
